Legend:
[1] = molecular target: T1, Spa2-C (Spa2 C-terminal region, 1306-1466aa) (S. cerevisiae, UniProt P23201 1306-1466); assay: SPR; bivalent model, koff1
T1 chain: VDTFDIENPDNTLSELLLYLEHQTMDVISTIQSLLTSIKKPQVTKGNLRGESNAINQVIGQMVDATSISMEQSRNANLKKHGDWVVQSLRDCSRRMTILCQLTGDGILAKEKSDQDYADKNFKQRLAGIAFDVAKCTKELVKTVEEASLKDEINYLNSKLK

[2] = molecular target: T1, Spa2-C (Spa2 C-terminal region, …); assay: SPR; bivalent model, koff2 (second site)

koff [1]: 0.046 s⁻¹
koff [2]: 0.00266 s⁻¹
B1: Aip5-N271 (domain or fragment)
chain: MVESLTVENQEHNVQPPSVTSAGDSYSTLATDLPLPSTNDIIESRDQLTESDLDEAINATENFAQELSSQRKSSKLKGHKKKNQGQIKANRDRDTIVKLSSSVGETEEASTRDAISHDLERKDDVIEIATDTINDATESPTQIPIDVNVVIKETSTNNVAEGTENVPPIKESTGIEVGNSPITRRKKNKKKKTTNRRGRNSSNPADTTDLSKQSTLDSILVGIEEYLQEDGSKNEDIKVNIVQDEPVNVEKMDIRTRNESSDKTFDIDVPN

— article PMC6838200 (2019)
